Test [1] deals with MUC5AC (NPC-1 antigen, tumor variant) as expressed on human pancreatic tumor cell lines (human) (UniProt P98088). Nature of the test: immunofluorescence on fixed, permeabilized CFPAC-1 cells, 2 ug/ml.
Test [2] concerns the target MUC5AC (NPC-1 antigen, tumor variant) as expressed by human colorectal tumor cell lines (human) (UniProt P98088). Nature of the test: flow cytometry on Colo-205 colorectal tumor cells. For orientation: In flow cytometry, cells or beads pass a laser one at a time.
Test [3] shares this target. Nature of the test: flow cytometry on LS174T colorectal tumor cells.
Test [4] has the same target. Nature of the test: flow cytometry on SW480 colorectal tumor cells.
The target of test [5] is MUC5AC (NPC-1 antigen, tumor variant) as expressed on human pancreatic tumor cell lines (human) (UniProt P98088). Put plainly: flow cytometry on CFPAC-1 pancreatic tumor cells.

MUC5AC (NPC-1 antigen, tumor variant) as expressed by human colorectal tumor cell lines (human), sequence (P98088 other isoform, or with tags, fused parts or gaps mutant limits assumed): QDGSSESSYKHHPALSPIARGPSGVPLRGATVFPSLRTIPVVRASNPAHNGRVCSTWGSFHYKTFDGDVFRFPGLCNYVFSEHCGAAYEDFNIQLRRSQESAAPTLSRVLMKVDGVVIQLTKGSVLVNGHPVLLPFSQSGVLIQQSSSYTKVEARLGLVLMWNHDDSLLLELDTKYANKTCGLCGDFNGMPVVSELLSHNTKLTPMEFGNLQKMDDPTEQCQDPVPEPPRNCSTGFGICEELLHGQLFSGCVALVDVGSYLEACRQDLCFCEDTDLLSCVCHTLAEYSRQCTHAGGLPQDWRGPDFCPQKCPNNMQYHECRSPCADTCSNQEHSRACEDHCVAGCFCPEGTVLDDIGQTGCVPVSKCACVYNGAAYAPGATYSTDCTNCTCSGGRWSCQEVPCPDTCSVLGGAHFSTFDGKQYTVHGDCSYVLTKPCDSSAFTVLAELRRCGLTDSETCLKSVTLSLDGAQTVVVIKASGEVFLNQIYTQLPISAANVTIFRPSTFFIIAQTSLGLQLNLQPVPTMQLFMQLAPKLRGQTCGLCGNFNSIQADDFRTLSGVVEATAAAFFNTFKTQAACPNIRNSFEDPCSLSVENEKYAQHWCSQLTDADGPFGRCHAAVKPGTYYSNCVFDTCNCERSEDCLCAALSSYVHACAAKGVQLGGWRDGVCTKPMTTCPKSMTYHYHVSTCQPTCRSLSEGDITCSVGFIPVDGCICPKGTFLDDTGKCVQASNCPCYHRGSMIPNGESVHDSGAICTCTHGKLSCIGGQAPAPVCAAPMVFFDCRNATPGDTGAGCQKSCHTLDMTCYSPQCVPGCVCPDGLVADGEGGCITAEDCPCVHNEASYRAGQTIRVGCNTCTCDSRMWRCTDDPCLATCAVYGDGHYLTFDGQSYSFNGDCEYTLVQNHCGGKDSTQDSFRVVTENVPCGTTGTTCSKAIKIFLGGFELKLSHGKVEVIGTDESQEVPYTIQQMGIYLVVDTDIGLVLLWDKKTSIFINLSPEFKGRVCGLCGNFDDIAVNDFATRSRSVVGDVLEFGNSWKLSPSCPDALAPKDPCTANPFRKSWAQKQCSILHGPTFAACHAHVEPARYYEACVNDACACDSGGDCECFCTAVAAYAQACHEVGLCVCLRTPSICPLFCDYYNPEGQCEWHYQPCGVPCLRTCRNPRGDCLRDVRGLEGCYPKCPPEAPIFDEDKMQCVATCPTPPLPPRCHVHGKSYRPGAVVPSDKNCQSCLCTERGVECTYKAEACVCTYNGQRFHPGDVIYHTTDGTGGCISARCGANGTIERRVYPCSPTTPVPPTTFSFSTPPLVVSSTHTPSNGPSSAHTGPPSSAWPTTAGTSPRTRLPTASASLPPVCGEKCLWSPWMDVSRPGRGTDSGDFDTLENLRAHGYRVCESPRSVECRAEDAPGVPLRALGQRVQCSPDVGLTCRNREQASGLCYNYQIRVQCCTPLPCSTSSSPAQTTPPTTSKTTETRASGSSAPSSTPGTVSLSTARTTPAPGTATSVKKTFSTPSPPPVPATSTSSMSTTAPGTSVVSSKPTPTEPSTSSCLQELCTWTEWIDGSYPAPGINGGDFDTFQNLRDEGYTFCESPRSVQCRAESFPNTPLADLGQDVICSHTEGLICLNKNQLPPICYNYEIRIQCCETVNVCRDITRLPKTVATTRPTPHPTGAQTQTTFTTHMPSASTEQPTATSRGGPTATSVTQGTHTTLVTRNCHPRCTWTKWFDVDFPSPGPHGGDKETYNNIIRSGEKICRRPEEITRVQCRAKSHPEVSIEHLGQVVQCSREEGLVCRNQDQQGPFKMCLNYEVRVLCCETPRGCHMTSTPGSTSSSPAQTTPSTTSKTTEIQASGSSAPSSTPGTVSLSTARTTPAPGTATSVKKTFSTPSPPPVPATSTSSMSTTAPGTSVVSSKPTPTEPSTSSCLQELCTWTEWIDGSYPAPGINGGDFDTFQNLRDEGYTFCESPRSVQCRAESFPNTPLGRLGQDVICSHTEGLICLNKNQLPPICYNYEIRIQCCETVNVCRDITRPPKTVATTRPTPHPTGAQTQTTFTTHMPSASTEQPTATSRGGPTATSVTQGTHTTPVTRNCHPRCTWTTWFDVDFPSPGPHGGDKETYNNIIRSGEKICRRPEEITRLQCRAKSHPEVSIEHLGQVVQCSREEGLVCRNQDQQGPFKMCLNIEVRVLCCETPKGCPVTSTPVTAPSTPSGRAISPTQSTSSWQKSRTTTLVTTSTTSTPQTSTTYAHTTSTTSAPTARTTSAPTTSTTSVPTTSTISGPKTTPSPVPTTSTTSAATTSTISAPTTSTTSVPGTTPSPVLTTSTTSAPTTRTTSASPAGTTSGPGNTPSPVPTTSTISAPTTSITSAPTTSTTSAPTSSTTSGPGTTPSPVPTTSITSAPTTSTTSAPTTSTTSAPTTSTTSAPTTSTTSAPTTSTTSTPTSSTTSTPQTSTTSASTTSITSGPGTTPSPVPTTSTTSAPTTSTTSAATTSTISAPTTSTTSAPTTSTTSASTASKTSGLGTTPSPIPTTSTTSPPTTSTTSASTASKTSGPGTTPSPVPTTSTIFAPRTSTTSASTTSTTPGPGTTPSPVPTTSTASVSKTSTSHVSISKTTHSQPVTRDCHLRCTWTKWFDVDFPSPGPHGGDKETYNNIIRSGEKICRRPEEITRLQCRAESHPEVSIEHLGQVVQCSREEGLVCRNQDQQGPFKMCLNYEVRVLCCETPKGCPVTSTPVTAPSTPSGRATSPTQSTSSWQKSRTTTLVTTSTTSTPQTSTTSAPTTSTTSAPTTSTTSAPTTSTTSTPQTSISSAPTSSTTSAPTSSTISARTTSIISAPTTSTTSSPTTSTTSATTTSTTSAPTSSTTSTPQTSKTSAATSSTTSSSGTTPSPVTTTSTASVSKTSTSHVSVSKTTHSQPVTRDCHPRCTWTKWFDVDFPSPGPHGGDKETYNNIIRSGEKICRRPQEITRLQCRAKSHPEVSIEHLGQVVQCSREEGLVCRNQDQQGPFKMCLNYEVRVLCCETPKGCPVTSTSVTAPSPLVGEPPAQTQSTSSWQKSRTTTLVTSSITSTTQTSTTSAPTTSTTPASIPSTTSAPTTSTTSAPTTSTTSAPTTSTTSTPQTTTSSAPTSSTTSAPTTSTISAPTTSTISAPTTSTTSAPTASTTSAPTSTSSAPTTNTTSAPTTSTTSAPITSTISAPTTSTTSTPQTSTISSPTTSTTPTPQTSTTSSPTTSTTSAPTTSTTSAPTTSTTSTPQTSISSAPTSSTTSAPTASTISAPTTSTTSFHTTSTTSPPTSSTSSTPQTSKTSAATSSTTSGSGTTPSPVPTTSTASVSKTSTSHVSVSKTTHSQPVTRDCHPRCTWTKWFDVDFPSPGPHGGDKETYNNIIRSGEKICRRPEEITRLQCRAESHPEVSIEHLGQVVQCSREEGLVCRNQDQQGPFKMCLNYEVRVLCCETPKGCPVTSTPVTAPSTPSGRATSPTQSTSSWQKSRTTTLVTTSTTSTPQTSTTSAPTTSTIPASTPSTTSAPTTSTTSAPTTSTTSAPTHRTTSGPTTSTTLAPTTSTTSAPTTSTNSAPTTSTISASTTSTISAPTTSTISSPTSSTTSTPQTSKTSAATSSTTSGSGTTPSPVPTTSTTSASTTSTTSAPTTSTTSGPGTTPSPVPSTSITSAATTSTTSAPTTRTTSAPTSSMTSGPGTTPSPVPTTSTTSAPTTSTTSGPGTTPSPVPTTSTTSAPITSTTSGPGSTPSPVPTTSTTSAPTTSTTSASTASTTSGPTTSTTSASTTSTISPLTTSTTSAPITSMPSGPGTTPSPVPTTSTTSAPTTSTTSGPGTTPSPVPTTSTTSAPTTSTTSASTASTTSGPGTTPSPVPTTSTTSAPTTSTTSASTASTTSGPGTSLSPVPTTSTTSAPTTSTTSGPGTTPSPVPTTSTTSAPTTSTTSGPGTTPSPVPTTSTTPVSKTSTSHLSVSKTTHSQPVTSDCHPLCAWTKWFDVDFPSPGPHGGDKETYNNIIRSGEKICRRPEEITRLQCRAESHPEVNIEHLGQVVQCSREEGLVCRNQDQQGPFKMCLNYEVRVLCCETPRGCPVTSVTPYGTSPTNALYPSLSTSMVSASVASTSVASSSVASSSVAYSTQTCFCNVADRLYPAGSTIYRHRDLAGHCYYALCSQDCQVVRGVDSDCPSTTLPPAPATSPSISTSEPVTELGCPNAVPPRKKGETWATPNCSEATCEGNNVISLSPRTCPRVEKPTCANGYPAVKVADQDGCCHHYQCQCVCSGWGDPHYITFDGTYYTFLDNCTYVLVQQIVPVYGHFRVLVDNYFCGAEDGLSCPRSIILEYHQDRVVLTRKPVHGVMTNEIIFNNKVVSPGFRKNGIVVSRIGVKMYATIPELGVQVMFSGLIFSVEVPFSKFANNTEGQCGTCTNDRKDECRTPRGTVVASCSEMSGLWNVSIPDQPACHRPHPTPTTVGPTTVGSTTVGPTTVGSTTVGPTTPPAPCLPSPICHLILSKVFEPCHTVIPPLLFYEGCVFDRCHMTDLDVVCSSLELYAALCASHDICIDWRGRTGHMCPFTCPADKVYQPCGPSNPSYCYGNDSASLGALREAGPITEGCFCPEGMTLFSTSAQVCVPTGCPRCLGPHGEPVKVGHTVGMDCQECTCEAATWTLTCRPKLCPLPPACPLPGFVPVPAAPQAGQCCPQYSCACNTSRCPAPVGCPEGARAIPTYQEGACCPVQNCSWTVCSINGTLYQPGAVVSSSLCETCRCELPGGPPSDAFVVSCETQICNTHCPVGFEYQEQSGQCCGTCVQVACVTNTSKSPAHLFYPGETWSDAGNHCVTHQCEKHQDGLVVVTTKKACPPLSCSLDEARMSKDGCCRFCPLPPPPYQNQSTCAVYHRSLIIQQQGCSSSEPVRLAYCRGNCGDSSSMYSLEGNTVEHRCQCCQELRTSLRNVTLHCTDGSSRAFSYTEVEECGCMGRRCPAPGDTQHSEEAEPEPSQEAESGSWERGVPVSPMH
MUC5AC (NPC-1 antigen, tumor variant) as expressed on human pancreatic tumor cell lines (human), sequence (P98088 other isoform, or with tags, fused parts or gaps mutant limits assumed): as above

With “Polyclonal rabbit anti-MUC5AC antibody (H-160) (Santa Cruz Biotechnology Inc.)”, the % of cells stained in test [1] stood at 100%.

Isotype control antibody: the % Cells Stained in test [2] is 2.33%; in test [3], 3.85%; in test [4] it was 3.38%; in test [5], 1.79%.

The record behind these values is patent publication US20260109745A1.
